Source: the RNAGym collection of RNA variant scans (doi:10.1073/pnas.2313332121)
Variants at the floor of the assay were thinned out.

B1: TPR 5TU (parent)
chain: GGAUCUUCUCGAUCUAACAAAAAAGACAAAUCUGCCACAAAGCUUGAGAGCAUCUUCGGAUGCAGAGGCGGCAGCCUUCGGUGGCGCGAUAGCGCCAACGUUCUCAACUAUGACACGCAAAACGCGUGCUCCGUUGAAUGGAGUUUAUCAUG

Variants of: B1
Test: polymerase ribozyme fitness, log enrichment relative to wild type (log ratio); higher = more active; in vitro selection for triplet polymerase activity
How it was run: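 After PCR construction and transcription, each subunit's mutant library from a heterodimeric triplet polymerase ribozyme was annealed with a biotinylated primer, the partner subunit and triplets. Incubation was frozen, at −7 °C, and extended constructs were gel-excised, bound to streptavidin beads and amplified by RT-PCR, in one selection round done in triplicate. Fitness is the logarithm of a genotype's enrichment divided by that of the wild type, from inverse-variance-weighted replicate averages of Illumina-sequenced inputs and outputs. The base of the logarithm is 2, and genotypes needed ≥10 input reads and ≥1 read per output.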

Row | Variant | polymerase ribozyme fitness (log ratio)
1 | GGAUCUUCUCGAUCUAGCAAAAAAGACAAAUCUGCCACAAAGCUUGAGAGUAUCGUCGGAUGCAGAGGCGGCAGCCUUUGGUUGCGCGAUAGCGACAACGUUCUCAACUAUGACACGGAAAACGCGUGCUCCGUUGAAUGGAGUCUAUCAUG [A17G C51U U55G C79U G83U C95A C118G U145C] | ≤ -4.2
2 | GGAUCUUCUCGAUCUAGCAAAAAAGACAAAUCUGCCACAAAGCUUGCGAGCAUCUUCGGAUGCAGAGGCGGCAGCCUUCGGUGGCGACAUUGCGCCAACGUUCUCAACUAAGACACGCAAAACGCGUGCUCCGUUGAAUGGAGUUUAUCAUG [A17G A47C C87A G88C A91U U111A] | ≤ -4.2
3 | GGAUCUUCUCGAUCUAGCAAAAAAGACAAAUCUGCCACAAAGCUUGAGAGCAUCUUUGGAUGCAGAGGCGGCAGCCUUCGGUGGCGCGAUAGCGCCAACGUUCUCAACUAUGCCACGCAAAACGCGUGCUCCGUUGAAUGGAGUUUAUCAUG [A17G C57U A113C] | -3.96
4 | GGAUCUUCUCGAUCUAGCAAAAAAGACAAAUCUGCCACAAAGAUUGAGAGCAUUUUCGGAUGCAGAGGCGGCAGCCUUCGGUGGCGCGAUAGGGCCAACGUUCUCAACUAUGACACGCAAAACGCGUGCUCCGUUGAAUGGAGUUUAUCAUG [A17G C43A C54U C93G] | ≤ -4.2
5 | GGAUCUUCUCGAUCUAGAAAAAAAGACAAAUCUGCCACAAAGCUUGAGAGCAUCUUCGGAUGCAGAGGGGGCAGCCUUCGGUGGCGCGAUAGCGCCAACGGUCUUAACUAUGACACGCAUAACGCGUGCUCCGUUGAAUGGUGUUUAUCAUG [A17G C18A C69G U101G C105U A120U A142U] | -1.71
6 | GGAUCUUCUCGAUCUAGCAAAAAAGACAAAUCUGUUACAAAGCUUGAGAGCAUCUUCGGAUGCAGAGGCGGCAGCCUUCGGUGGCGCGAUAGCGUCAACGUUCUCAACUAUGACACGCAAAACGCGUGCUCCGUUGAAUGGAGUUUAUCAUG [A17G C35U C36U C95U] | ≤ -4.2
7 | GGAUCUUCUCGAUCUAGCAAAAAAGAAAAAUCUGCCACAAAGCUUGAGAGCAUCUUCGGAUGCAGAGGCGGCAGCCUUCGGUGGCGCGAUAGCGCCAACGUUCUCAACUAUGACACGCAAAACGCGUGCUCCGUUGAAUGGAGUUUAUCAUG [A17G C27A] | ≤ -4.2
8 | GGAUCUUCUCGAUCUAGCAAAAAAGACAAAUCUGCCACAAAGCUUGAGAGCAUCUUCGGAUGAAGAGGCGGCAGCCUUCGGUGGCGCGAUAGCGCCAACGUUCUCAACUAUGACACGGAAAACGCGUGCUCCGUUGAAUGGUGUUUAUCAUG [A17G C63A C118G A142U] | -2.32
9 | GGAUCUUCUCGAUCUAGAAAAAAAGACAAAUCUGCCACAAAGCUUGAGAGCAUCUUCGGAUGCAGAGGCGGCAGCCUUCGGUGCCGCGAUAGUGCCAACGUUCUCAACUAUGACACGCAAAACGCGUGCUCCGUUGAAUGGAGUUUAUCAUG [A17G C18A G84C C93U] | -3.84
10 | GGAUCUUCUCGAUCUAGCAAAAAAGACAAAUCUGCCACAAAGCUUGAGAGCAUCUUCGGAUGCAGAGGCGGUAGCCUUCGGUGGCGCGAUAGCGCCAACGUUCUCAACUAUGACACGCAAAACGCGUGCUCCGUUGAAUGGAGUUUCUCAUG [A17G C72U A147C] | -0.924
11 | GGAUCUUCUCGAUCUAGGAAAAAAGACAAAGCUGCCACAAAGCUUGAGAGCAUCUUCGGAUGCAGAGACGGCAGCCUUCGGUGGCGUGAUAGCGCCAACGUUCUCAACUAUGACACGCAAAACGCGUGCUCCUUUGAAUGGAGUUUAUCAUG [A17G C18G U31G G68A C87U G133U] | ≤ -4.2
12 | GGAUCUUCUCGAUCUAGCAAAAAAGACAAAUCUGCCACAAAGCUUGAGUGCAUCUUCGGAUGCAGAGGCGCCAGCCUUAGGUGGCGCGAUAGCGCCAACGUUCUCUACUAUGACACGCAAAACGCGUGCUCCGUUGAAUGGAGUUUAUCAUG [A17G A49U G71C C79A A106U] | ≤ -4.2
13 | GGAUCUUCUCGAUCUAGCAAAAAAGACAAAUCUGCCACAAAGCUUGAGAGCAUCUUCGGAUGCAGAGGCGGCAGCCUUCGGUGGCGCGAUAGCGCCAACGUUCUCAACUAUGCCACGCAAAACGCGUGCUCCGUUGAAUGGAGUUUAUCAUG [A17G A113C] | -2.83
14 | GGAUCUUCUCGAUCUAGCAAAAAAGACAAAUCUGCCACAAAGCUUGAGAGCAUGUUCGGAUGCAGAGGCGGCAGCCUUCGGUGGCGCGAUAGCGCCAACGUUCUCAACUAUGACACGCAAAACGCGUGCUCCGUUGAAUGGAGUUUAUCAUG [A17G C54G] | -1.5
15 | GGAUCUUCUCGAUCUAGCAAAAAAGACAAAUCUGCCACAAAGCUUGAGAGCAUCUUCGGAUGCAGAGGCGGCAGCCUUCGGUGGCGCGAUAGCGCCAACGUUCUCAACUAUGACACGCAAAACGCGUGCUCCGUUGAAUGGAGUUUUUCAUG [A17G A147U] | 1.55
16 | GGAUCUUCUCGAUCUAGCAAAAAAGACAAAUCUGCCACAAAGCUUGAGAGGAUCAUUGGAUGCAGAGGCGGCAGCCUUCGGUGGCGCGAUAUCGCCAACGUUAUCAAAUAUGACACGCAAAACGCGUGCUCCGUUGAAUGGAGUUUAUCAUG [A17G C51G U55A C57U G92U C103A C108A] | ≤ -4.2
17 | GGAUCUUCUCGAUCUAGCAAAAAAGACAAAUCUGCUACAAAGCUUGAGAGCAUCUUCGGAUGCAGAGGCGGCAGCCUUCGGUGGCGCGAUAGGGCCAACGUUCUCAACUAUGACACGCAAAACGCGUGCUCCGUUGAAUGGAGUUUAUCAUG [A17G C36U C93G] | -3.8
18 | GGAUCUUCUCGAUCUAGCAAAAAAGACAAAUAUGCCACAAAGCUUGAGAGAAUCAUCGGCUGCAGAGGCGGCAACCUUCGAUGGCGCGAGAGCGACAACGUUCUCAACUAUGACACGCAAAACGCGUGCUCCGUUGAAUGGAGUUUAUCAUG [A17G C32A C51A U55A A60C G74A G81A U90G C95A] | ≤ -4.2
19 | GGAUCUUCUCGAUCUAGCAAAAAAGAAAAAUCUGGCACAAAGCUUGAGAGCAUCUUCGGAUGCAGAGGCGGCAGACUUCGGUGGCCCGAUAGCGCCAACGUUCUCAACUAUGACACGCAAAACGCGUGCUCCGUUGAAUGGGGUUUAUCAUG [A17G C27A C35G C75A G86C A142G] | ≤ -4.2
